Measurements published in the supplement of paper PMC10567573.

B1: VTI1B (parent)
chain: ANETLAEMEEELRYAPLSFRNPMM

Variants of: B1
Test: protein stability index of a GFP-peptide fusion (GPS, HEK-293T) (PSI 1-6); higher = more stable
Conditions: c terminus: a fixed tail appended
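Further: lentivirally expressed fusions sorted by FACS into six bins by GFP to DsRed ratio, PSI derived from sequencing read proportions per bin multiplied by bin number.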

Variant	protein stability index
ANETLAEMEEELRYASLSFRNPMM [P16S]	2.92
ANETLAEMEEELRYAALSFRNPMM [P16A]	2.26
ANETLAEMEEELRYAYLSFRNPMM [P16Y]	2.36
ANETLAEMEEELRYATLSFRNPMM [P16T]	2.77
ANETLAEMEEELRYAGLSFRNPMM [P16G]	2
ANETLAEMEEELRYAFLSFRNPMM [P16F]	2.17
ANETLAEMEEELRYARLSFRNPMM [P16R]	2.71
ANETLAEMEEELRYAILSFRNPMM [P16I]	2.43
ANETLAEMEEELRYAMLSFRNPMM [P16M]	1.77
ANETLAEMEEELRYAKLSFRNPMM [P16K]	2.92
ANETLAEMEEELRYACLSFRNPMM [P16C]	1.92
ANETLAEMEEELRYAQLSFRNPMM [P16Q]	2.29
ANETLAEMEEELRYADLSFRNPMM [P16D]	3.56
ANETLAEMEEELRYAHLSFRNPMM [P16H]	2.64
ANETLAEMEEELRYALLSFRNPMM [P16L]	1.88
ANETLAEMEEELRYANLSFRNPMM [P16N]	3.15
ANETLAEMEEELRYAVLSFRNPMM [P16V]	1.3
ANETLAEMEEELRYAELSFRNPMM [P16E]	2.66
ANETLAEMEEELRYAWLSFRNPMM [P16W]	1.89
ANETLAEMEEELRYAPLRFRNPMM [S18R]	3.8
ANETLAEMEEELRYAPLWFRNPMM [S18W]	3.98
ANETLAEMEEELRYAPLTFRNPMM [S18T]	1.79
ANETLAEMEEELRYAPLDFRNPMM [S18D]	2.98
ANETLAEMEEELRYAPLGFRNPMM [S18G]	3.19

Variant	protein stability index
ANETLAEMEEELRYAPLCFRNPMM [S18C]	2.24
ANETLAEMEEELRYAPLQFRNPMM [S18Q]	3.35
ANETLAEMEEELRYAPLEFRNPMM [S18E]	3.79
ANETLAEMEEELRYAPLPFRNPMM [S18P]	4.1
ANETLAEMEEELRYAPLMFRNPMM [S18M]	2.81
ANETLAEMEEELRYAPLHFRNPMM [S18H]	2.94
ANETLAEMEEELRYAPLLFRNPMM [S18L]	3.19
ANETLAEMEEELRYAPLFFRNPMM [S18F]	2.64
ANETLAEMEEELRYAPLKFRNPMM [S18K]	3.81
ANETLAEMEEELRYAPLNFRNPMM [S18N]	2.23
ANETLAEMEEELRYAPLVFRNPMM [S18V]	3.14
ANETLAEMEEELRYAPLAFRNPMM [S18A]	2.21
ANETLAEMEEELRYAPLIFRNPMM [S18I]	2.83
ANETLAEMEEELRYAPLYFRNPMM [S18Y]	3.25
ANETLAEMEEELCYAPLSFRNPMM [R13C]	2.77
ANETLAEMEEELTYAPLSFRNPMM [R13T]	1.42
ANETLAEMEEELPYAPLSFRNPMM [R13P]	2.75
ANETLAEMEEELYYAPLSFRNPMM [R13Y]	1.64
ANETLAEMEEELVYAPLSFRNPMM [R13V]	2.64
ANETLAEMEEELLYAPLSFRNPMM [R13L]	1.7
ANETLAEMEEELQYAPLSFRNPMM [R13Q]	2.37
ANETLAEMEEELDYAPLSFRNPMM [R13D]	3.02
ANETLAEMEEELHYAPLSFRNPMM [R13H]	1.82
ANETLAEMEEELSYAPLSFRNPMM [R13S]	2.25

Variant	protein stability index
ANETLAEMEEELGYAPLSFRNPMM [R13G]	1.67
ANETLAEMEEELFYAPLSFRNPMM [R13F]	2.01
ANETLAEMEEELWYAPLSFRNPMM [R13W]	2.03
ANETLAEMEEELEYAPLSFRNPMM [R13E]	2.11
ANETLAEMEEELMYAPLSFRNPMM [R13M]	2.29
ANETLAEMEEELAYAPLSFRNPMM [R13A]	2.04
ANETLAEMEEELNYAPLSFRNPMM [R13N]	1.94
ANETLAEMEEELKYAPLSFRNPMM [R13K]	1.46
ANETLAEMEEELRYAPLSFRRPMM [N21R]	3.25
ANETLAEMEEELRYAPLSFRAPMM [N21A]	3.81
ANETLAEMEEELRYAPLSFRKPMM [N21K]	3.61
ANETLAEMEEELRYAPLSFRPPMM [N21P]	3.58
ANETLAEMEEELRYAPLSFREPMM [N21E]	3.95
ANETLAEMEEELRYAPLSFRSPMM [N21S]	3.41
ANETLAEMEEELRYAPLSFRDPMM [N21D]	3.12
ANETLAEMEEELRYAPLSFRYPMM [N21Y]	3.39
ANETLAEMEEELRYAPLSFRFPMM [N21F]	3.35
ANETLAEMEEELRYAPLSFRMPMM [N21M]	3.37
ANETLAEMEEELRYAPLSFRTPMM [N21T]	3.17
ANETLAEMEEELRYAPLSFRLPMM [N21L]	3.13
ANETLAEMEEELRYAPLSFRHPMM [N21H]	3.42
ANETLAEMEEELRYAPLSFRWPMM [N21W]	2.21
ANETLAEMEEELRYAPLSFRIPMM [N21I]	2.92
ANETLAEMEEELRYAPLSFRCPMM [N21C]	2.71

Variant	protein stability index
ANETLAEMEEELRYAPLSFRQPMM [N21Q]	3.76
ANETLAEMEEELRYAPLSFRGPMM [N21G]	3.72
ANETLAEMEEELRYAPLSVRNPMM [F19V]	3.28
ANETLAEMEEELRYAPLSIRNPMM [F19I]	3.73
ANETLAEMEEELRYAPLSKRNPMM [F19K]	4.49
ANETLAEMEEELRYAPLSQRNPMM [F19Q]	3.96
ANETLAEMEEELRYAPLSMRNPMM [F19M]	4.23
ANETLAEMEEELRYAPLSYRNPMM [F19Y]	2.35
ANETLAEMEEELRYAPLSWRNPMM [F19W]	3.24
ANETLAEMEEELRYAPLSARNPMM [F19A]	3.94
ANETLAEMEEELRYAPLSDRNPMM [F19D]	4.85
ANETLAEMEEELRYAPLSHRNPMM [F19H]	4.26
ANETLAEMEEELRYAPLSCRNPMM [F19C]	4.43
ANETLAEMEEELRYAPLSNRNPMM [F19N]	4.3
ANETLAEMEEELRYAPLSERNPMM [F19E]	4.67
ANETLAEMEEELRYAPLSRRNPMM [F19R]	4.18
ANETLAEMEEELRYAPLSGRNPMM [F19G]	4.5
ANETLAEMEEELRYAPLSTRNPMM [F19T]	4.44
ANETLAEMEEELRYAPLSPRNPMM [F19P]	4.87
ANETLAEMEEELRYAPLSFRNNMM [P22N]	3.58
ANETLAEMEEELRYAPLSFRNEMM [P22E]	3.97
ANETLAEMEEELRYAPLSFRNSMM [P22S]	3.48
ANETLAEMEEELRYAPLSFRNKMM [P22K]	3.43
ANETLAEMEEELRYAPLSFRNQMM [P22Q]	4.11

Variant	protein stability index
ANETLAEMEEELRYAPLSFRNRMM [P22R]	3.32
ANETLAEMEEELRYAPLSFRNCMM [P22C]	3.25
ANETLAEMEEELRYAPLSFRNFMM [P22F]	2.67
ANETLAEMEEELRYAPLSFRNHMM [P22H]	4.1
ANETLAEMEEELRYAPLSFRNIMM [P22I]	3.03
ANETLAEMEEELRYAPLSFRNLMM [P22L]	3.34
ANETLAEMEEELRYAPLSFRNMMM [P22M]	3.63
ANETLAEMEEELRYAPLSFRNAMM [P22A]	3.56
ANETLAEMEEELRYAPLSFRNGMM [P22G]	3.58
ANETLAEMEEELRYAPLSFRNDMM [P22D]	4.75
ANETLAEMEEELRHAPLSFRNPMM [Y14H]	1.7
ANETLAEMEEELRPAPLSFRNPMM [Y14P]	2.43
ANETLAEMEEELRNAPLSFRNPMM [Y14N]	2.62
ANETLAEMEEELRFAPLSFRNPMM [Y14F]	2.06
ANETLAEMEEELRCAPLSFRNPMM [Y14C]	1.98
ANETLAEMEEELRVAPLSFRNPMM [Y14V]	2.09
ANETLAEMEEELRWAPLSFRNPMM [Y14W]	1.32
ANETLAEMEEELRKAPLSFRNPMM [Y14K]	1.93
ANETLAEMEEELRSAPLSFRNPMM [Y14S]	1.94
ANETLAEMEEELRQAPLSFRNPMM [Y14Q]	1.67
ANETLAEMEEELRLAPLSFRNPMM [Y14L]	3.08
ANETLAEMEEELRDAPLSFRNPMM [Y14D]	3.36
ANETLAEMEEELRRAPLSFRNPMM [Y14R]	2.47
ANETLAEMEEELRGAPLSFRNPMM [Y14G]	2.11

Variant	protein stability index
ANETLAEMEEELRMAPLSFRNPMM [Y14M]	1.65
ANETLAEMEEELRIAPLSFRNPMM [Y14I]	1.66
ANETLAEMEEELRTAPLSFRNPMM [Y14T]	2.53
ANETLAEMEEELRAAPLSFRNPMM [Y14A]	2.48
ANETLAEMEEELREAPLSFRNPMM [Y14E]	3.66
ANETLAEMEEELRYAPLSFDNPMM [R20D]	2.48
ANETLAEMEEELRYAPLSFWNPMM [R20W]	2.48
ANETLAEMEEELRYAPLSFINPMM [R20I]	1.9
ANETLAEMEEELRYAPLSFANPMM [R20A]	2.25
ANETLAEMEEELRYAPLSFVNPMM [R20V]	1.71
ANETLAEMEEELRYAPLSFTNPMM [R20T]	2.42
ANETLAEMEEELRYAPLSFLNPMM [R20L]	2.57
ANETLAEMEEELRYAPLSFQNPMM [R20Q]	1.72
ANETLAEMEEELRYAPLSFPNPMM [R20P]	3.62
ANETLAEMEEELRYAPLSFMNPMM [R20M]	2.4
ANETLAEMEEELRYAPLSFFNPMM [R20F]	2.63
ANETLAEMEEELRYAPLSFSNPMM [R20S]	2.03
ANETLAEMEEELRYAPLSFNNPMM [R20N]	1.51
ANETLAEMEEELRYAPLSFENPMM [R20E]	2.58
ANETLAEMEEELRYAPLSFYNPMM [R20Y]	2.12
ANETLAEMEEELRYAPLSFHNPMM [R20H]	1.7
ANETLAEMEEELRYAPLSFCNPMM [R20C]	2.35
ANETLAEMEEELRYAPLSFGNPMM [R20G]	2.65
ANETLAEMEEELRYAPLSFKNPMM [R20K]	3.36

Variant	protein stability index
ANETLAEMEEELRYRPLSFRNPMM [A15R]	1.76
ANETLAEMEEELRYDPLSFRNPMM [A15D]	3.7
ANETLAEMEEELRYVPLSFRNPMM [A15V]	3.98
ANETLAEMEEELRYTPLSFRNPMM [A15T]	2.06
ANETLAEMEEELRYHPLSFRNPMM [A15H]	1.9
ANETLAEMEEELRYSPLSFRNPMM [A15S]	1.61
ANETLAEMEEELRYQPLSFRNPMM [A15Q]	1.67
ANETLAEMEEELRYMPLSFRNPMM [A15M]	1.53
ANETLAEMEEELRYFPLSFRNPMM [A15F]	1.39
ANETLAEMEEELRYCPLSFRNPMM [A15C]	1.64
ANETLAEMEEELRYYPLSFRNPMM [A15Y]	2.52
ANETLAEMEEELRYLPLSFRNPMM [A15L]	2.03
ANETLAEMEEELRYKPLSFRNPMM [A15K]	3.09
ANETLAEMEEELRYNPLSFRNPMM [A15N]	2.64
ANETLAEMEEELRYIPLSFRNPMM [A15I]	2.06
ANETLAEMEEELRYGPLSFRNPMM [A15G]	3.44
ANETLAEMEEELRYWPLSFRNPMM [A15W]	2.92
ANETLAEMEEELRYEPLSFRNPMM [A15E]	3.56
ANETLAEMEEERRYAPLSFRNPMM [L12R]	2.59
ANETLAEMEEEQRYAPLSFRNPMM [L12Q]	3.33
ANETLAEMEEESRYAPLSFRNPMM [L12S]	4.33
ANETLAEMEEEYRYAPLSFRNPMM [L12Y]	4.21
ANETLAEMEEEWRYAPLSFRNPMM [L12W]	2.19
ANETLAEMEEETRYAPLSFRNPMM [L12T]	3.9

Variant	protein stability index
ANETLAEMEEEVRYAPLSFRNPMM [L12V]	1.83
ANETLAEMEEELRYAPISFRNPMM [L17I]	3.02
ANETLAEMEEELRYAPASFRNPMM [L17A]	3.66
ANETLAEMEEELRYAPQSFRNPMM [L17Q]	4.14
ANETLAEMEEELRYAPKSFRNPMM [L17K]	3.69
ANETLAEMEEELRYAPTSFRNPMM [L17T]	4.06
ANETLAEMEEELRYAPSSFRNPMM [L17S]	2.8
ANETLAEMEEELRYAPRSFRNPMM [L17R]	2.93
ANETLAEMEEELRYAPVSFRNPMM [L17V]	2.8
ANETLAEMEEELRYAPGSFRNPMM [L17G]	3.49
ANETLAEMEEELRYAPDSFRNPMM [L17D]	4.33
ANETLAEMEEELRYAPHSFRNPMM [L17H]	3.79
ANETLAEMEEELRYAPPSFRNPMM [L17P]	3.78
ANETLAEMEEELRYAPCSFRNPMM [L17C]	3.58
ANETLAEMEEELRYAPYSFRNPMM [L17Y]	3.41
ANETLAEMEEELRYAPESFRNPMM [L17E]	4.46
ANETLAEMEEELRYAPFSFRNPMM [L17F]	1.52
ANETLAEMEEELRYAPMSFRNPMM [L17M]	3.13
ANETLAEMEEELRYAPNSFRNPMM [L17N]	4.16
ANETLAEMEEELRYAPWSFRNPMM [L17W]	2
